Measured values as given in the DeepSol protein solubility set.

Test: soluble on expression in E. coli; label from the status in PepcDB or PDB records

With “MQLSTLTALSPLDGRYQDKVTPLRAIFSEFGLMKFRVAVEVRWLQKLASTADITEVPPFSTQANAFLDGIVANFNEADAARIKEIERTTNHDVKAVEYFLKEKIQNEVELVKVSEFIHFACTSEDINNLSHALMLSTARDEVILPEWQKLIDEITRLAEEYKTIPLLSRTHGQPASPSTVGKEMANVVYRLKRQFKQLQNAEILGKINGAVGNYNAHLSAYPNIDWHKFSEEFVTSLGIQWNPYTTQIEPHDYITEFFDAVVRFNTIIIDFDRDLWGYIALNHFKQRTIAGEIGSSTMPHKVNPIDFENSEGNLGLANAVMTHLGQKLPISRWQRDLTDSTVLRNLGVGLGYCLIAYASTRKGISKLEVNQPHLLEELNQNWEVLAEPIQTVMRRYGIEKPYEKLKELTRGKRVTEQAMREFIDKLDIPQEEKLRLQKLTPATYIGAAVELVEKLS” as the sequence, how does the “soluble on expression in E. coli” value read?
The value was “not soluble”.

For “MGSDKIHHHHHHMLLAPEDKLNERRAEYPGIEVHPLKFCSSELQAGHWKFLMGAIGNQAAYIRQLGNIMRKNRNNLSIQAIRDGIQNSSLSDSLKDLADMRLDFAEQYIDDQLNVGSLIRPGRMIVVDVRDEFIEKDEALGLFVVLLQIFSEAKYQGQSFNKLIVFDECHKYIDSPDLVKGLVETVREMRHKGTSVMIASQDPPSVPIELIQLSSQIILHKFNAPDWLKHIQKACIGLKSLTPEKLGALKPGEAFIWSSKASDNAFVSDAMKIQCRPRVTKHGGDTLTAI”, which “soluble on expression in E. coli” value is on record?
The value was “not soluble”.

For “MYSFTTERLMIRPLRAEDEVFYCQLYADSKVMENIGKTITKKQARQWFKRALKALSSPKKSVVTLAIVKKSTNNIIGIQALSWQNTTQILKPCSQKLVQAEIGIMLTTKAQGQGFGKEAIKALMAYGFVYHSLDRINAFYAKKNLASERLFNSLH”, which “soluble on expression in E. coli” value is on record?
Its value is “not soluble”.

With “GTIVITGTITDQTCTIEDPSPGYIKVVHLPTISKSALKNAGDVAGRTRFDIKLKDCPTTVNTLKLYFEPGPTTDYGTKDLKAYKQAWYVDAATLLKSPPSVTEAKGVQIRLMNLNGKQIPMGETEPNQHAAAFSGTMQAGQAKKSFTLHYLAGYVKKASGEVEATMLTTYVGFSVVYP” as the sequence, how does the “soluble on expression in E. coli” value read?
Its value is “not soluble”.

Which “soluble on expression in E. coli” value does the source give for “MGSDKIHHHHHHMKKLRIAQVSPLIESVPPKKYGGTERVVYYLTEGLVERGHEVTLFASGDSATSARLIAPVKESLRLGRKIHSTTIMHMLMLSKVYEEMAGEFDIIHSHLEYLTLPYASCSRTPTVLTMHGRLDLPDYADILKRYSSMAWVSISDSQRAPVPDINWVGTIYHGYPENLFEFNPDPEDYFLYLGRFSEEKRPDEAIRLARACKIHLKLAAKIDTADKAYFKAKVEPLLDSPYIEYVGEVGDSRKGELLRNAKALLNTIDWPEPFGLVMIEALACGTPVIVRRCGSSPEVITHGVTGFICDSQLDFIRAIHNIGTISRIACRREFEQRFTLRHMVDNYETLYRKVIAASSATDSLSSLP” here?
The value was “not soluble”.

With “MDFSEASTSGDRVNGFAKPFPPKPREGAPPPAPPLAPGASTSQAPPPLQPPPVIESAEKFYVPGVEEKSKFRILSQQVEISNLNISTRSFNVRTEIVLLPCEKSLYQLDLHIGKCSLLPNEVPGSASKVTLNGVECEYSRRDFWKDLAQEKSISSLEPVLYEKLAENDYELQILIPKEVRKKIKHRKAVRLRVDTVVRDPPRGLQFVDFNEHDCHVFTYHTPHISGAREWTVCLDEPDQLALWELTFELEPHLVPVASGELEEKREVSENGKIRYKFHQTVPTSACNIGWAIGRFKLEPHPESPTIYTFSLPGLEPFVNHTTMYLDKMVEFLEEKLSCRFPYPTLKVVFVDQCTEEIQVYSSLLIVPTAMLYHKKIIDVVQEARQKLIFSIALQFFGCLISPAQWWHWWIPVSIARFLTSLYVETKLGTAEARWQLKRAMDDVCDYEHQWGKIVLSPPEPTKKLPLHVDPRHEYTASPLYVEAMLKKGFLTMRMLQRRIGLEPFMRVLHRVLTVGLDMSEKKTTPAAWRHLLTTTESFFRSVISVTGKEIPSFLSQFVRTGGHAAFAVKFDFNRKRNIVEIEIKQDDTEGNGRTQYTGPLSVVVQEVDGAFTHTIQIDGAVSHAEISCHSKGRKQRKKKVPLLTGEEIEIDLTNMDAESPILWLRIDPDYLLIREITISQPMFHWEYMLRYERDVIAQMEALERIQALPSAHSRSVIVDAVANEKFFYRIRYRAAFVLTFVQNRKSEALTVGTPVLINMFRESFGSKAATNIPRSNNFVVTAQNLQQYFVMQALPQAIARLRRQSGECHEDVQPFLLDLIKFNDNSTNRYSDDFYRAALYNSLASSVFPHDALPCHVELPENLSNDVRVLIKEFTYALNMDTVSPSWGRVVGAAALTGLYQLQKCGYLPLDSQLLWTFSHPNCCVQMRRCAITLIIDRIVNDPHAADTRMLDLSRILELAELEQDPSIRRMIPRLLAQTPPTIFGSENAANTAETAERLWKLCTNSSIDSCIRSGFLDVYYSLYALGAPPALGGPEESVGIHRAYVTVPNAASTFATSQWHNSGYEAARRSPPRRDFGDETMNLMQ” as the sequence, how does the “soluble on expression in E. coli” value read?
The value was “soluble”.
